According to patent US11229713B2, “Methods and compositions for 18F-radiolabeling of biologics” (BRISTOL-MYERS SQUIBB COMPANY, priority 2014, dated 2022):

What was measured:
[1] = Stability of reconstituted [18F]-FPPEGA in 1×PBS buffer; type: physicochemical; settings: 100% 1×PBS buffer, 37° C.
Description: An aqueous [^18F]-Fluoride solution (2.0 ml, 33.3 GBq/900 mCi) was purchased from P.E.T. Net® Pharmaceuticals in West Point Pa. and directly transferred to a Sep-Pak light QMA [The Sep-Pak light QMA cartridge was pre-conditioned sequentially with 5 ml of 0.5 M potassium bicarbonate, 5 ml of deionized water, and 5 ml of MeCN before use.] Upon completion of this transfer, the aqueous [^18F] fluoride was released from the QMA Sep-Pak by the sequential addition of potassium carbonate (15 mg/ml; 0.1 ml) followed by a mixture of potassium carbonate (30 mg/ml, 0.1 ml), 4,7,13,16,21,24-hexaoxa-1,10-diazabicyclo[8.8.8]hexacosane (15 mg, 0.04 mmol) and 1.2 ml of MeCN. The solvent was evaporated under a gentle stream of nitrogen at 90° C. and vacuum. Azeotropic drying was repeated twice with 1 ml portions of acetonitrile to generate the anhydrous K.2.2.2/K[^18F]F complex. […] The entire contents of the crude reaction mixture was then transferred, loaded and purified using reverse phase HPLC and the following conditions: HPLC Column: Luna C18 250×10 Solvent A: 0.1% TFA in DI water; solvent B: 0.1% TFA in acetonitrile at a flow rate of 4.6 ml/minute using isocratic method 32% B while the UV was monitored at 280 nm. […]

[2] = target: T1, PD-L1 (Homo sapiens, UniProt Q9NZQ7); test: microPET imaging of mice bearing bilateral PD-L1(+) L2987 and PD-L1(−) HT-29 xenografts; type: in vivo; set-up: introducing 1×10^6 PD-L1(+) L2987 human lung carcinoma cells; endogenous in cells; host or cells: L2987 human lung carcinoma xenografts grown subcutaneously in mice; settings: co-injected with 3 mg/kg unlabeled A02 Adnectin, 1 hour 50 minutes - 2 h post injection
T1 sequence (Q9NZQ7 19-290): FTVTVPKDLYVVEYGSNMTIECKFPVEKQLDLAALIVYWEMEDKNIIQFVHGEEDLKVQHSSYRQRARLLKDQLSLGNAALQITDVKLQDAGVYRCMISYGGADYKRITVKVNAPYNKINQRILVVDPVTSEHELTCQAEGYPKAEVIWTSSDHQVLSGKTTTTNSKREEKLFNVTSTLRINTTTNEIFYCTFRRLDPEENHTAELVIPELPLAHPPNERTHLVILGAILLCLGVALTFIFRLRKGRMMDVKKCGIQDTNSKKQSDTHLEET
From the text: Mice bearing bilateral xenograft tumors were produced by introducing 1×10^6 PD-L1(+) L2987 human lung carcinoma cells and 1.5×10^6 PD-L1(−) HT-29 human colon carcinoma cells subcutaneously on opposite sides of the mouse. Once tumors reached approximately 300 mm^3 (approximately 2-3 weeks after cell implantation) animals were selected for imaging. For imaging, animals were placed under anesthesia with 2% isoflurane and tail vein catheters were installed. Mice were then placed into a custom animal holder with capacity for 4 animals, where they remained under anesthesia for the duration of the study. The animal holder was transferred to the microPET® F120™ scanner (Siemens Preclinical Solutions, Knoxville, Tenn.). […]
Following the transmission scan, radiotracer solutions were administered via the previously installed tail vein catheters and a 2 hour emission image was acquired. […] Exact injected doses were calculated by taking direct measurement of the formulated dose and subtracting the radioactivity remaining in the syringe and the tail vein catheter.
In the final images, regions of interest (ROIs) were drawn around the tumor boundary using ASIPro software (Siemens Preclinical Solutions). Time-activity curves were calculated for each ROI to yield a quantitative view of radiotracer within the tumor volume over the course of the 2 hour emission image. […]

[3] = target: T1, PD-L1; test: Ex vivo tissue biodistribution by gamma counter in xenograft-bearing mice; set-up: introducing 1×10^6 PD-L1(+) L2987 human lung carcinoma cells; endogenous in cells; host or cells: L2987 human lung carcinoma xenografts grown subcutaneously in mice
Description: For some studies, animals were sacrificed via cervical dislocation immediately following imaging. Necropsy was then performed on the animals, and individual tissues were collected (blood, heart, lung, liver, spleen, kidney, muscle, stomach, bone, L2987 tumor, and HT-29 tumor) into pre-weighed tubes. All tissues were then weighed again to determine the weight of each tissue. The radioactivity in each tissue was then directly measured ex vivo using a Perkin-Elmer Wizard3 gamma counter. For all tissues, measured values in counts per minute (CPM) were normalized to the injected radioactive dose for the individual animals and corrected for radioactive decay.

[4] = tested on: PD-L1; settings: cynomolgus monkeys
Description: Cynomolgus male monkeys with a previously installed vascular access port (VAP) were anesthetized with 0.02 mg/kg atropine, 5 mg/kg Telazol and 0.01 mg/kg buprenorphine I.M. (all drawn into a single syringe). An i.v. catheter is then placed in the cephalic vessel for fluid administration during the imaging procedure to maintain hydration. […] Anesthesia was maintained with isoflurane and oxygen and I.V. fluids (LRS) were administered at a rate of 6 ml/kg/hr during the imaging procedure. As the axial field of view of the microPET® F220™ instrument is only 7.6 cm, images over 5 distinct bed positions were acquired to create a composite image of the animals from just above the heart through approximately the pelvis.
For each field of view, a 10 minute transmission image was first acquired using a ^57Co point source for the purpose of attenuation correction of the final PET images. […] Once images were acquired at each position (1 through 5), the imaging bed was moved back to bed position 1 and the process was repeated. Using this procedure, a total of 5 distinct images were acquired for each bed position over the duration of the imaging study.
Individual images were reconstructed using a filtered back projection (FBP) algorithm with attenuation correction using the collected transmission images and corrected for radioisotope decay.

[5] = target: T1, PD-L1; test: In vitro differentiation of PD-L1-positive from PD-L1-negative cells (cell-associated radioactivity, gamma counter); type: binding; set-up: PD-L1-positive L2987 human lung carcinoma cells or PD-L1-negative HT-29 human colorectal adenocarcinoma cells; endogenous in cells; host or cells: L2987 human lung carcinoma cells (HT-29 as PD-L1-negative control); settings: 1 hour on ice
Description: Portions of this solution were supplemented with either cold (unlabeled) […] or cold (unlabeled) […] (control) to a final concentration of 450 nM. […] After the incubation period, cell samples were centrifuged at 200×g and the supernatant was discarded. Cell pellets were resuspended in 1 mL PBS+0.5% BSA and the wash procedure repeated for a total of 3 washes. Following the final wash, cells were again centrifuged at 200×g and the supernatant was discarded. The radioactivity of the remaining cell pellets was then measured by gamma counter.

[N-]=[N+]=NCCOCCOCCOCCOc1cccnc1[18F] [[^18F]-3-(2-(2-(2-(2-azidoethoxy)ethoxy)ethoxy)ethoxy)-2-fluoropyridine]
stable in this media [1]: over 1 hour

B1: ^18F-radiolabeled A02: ^18F-radiolabeled PD-L1 Adnectin A02 (SEQ ID NO: 2) produced as described in Example 9 (conjugate)
chain: EVVAATPTSLLISWSYDGPIDRYYRITYGETGGNSPVQEFTVPPDQKTATISGLKPGVDYTITVYAVRLEEAHYNREFPISINYRTPC
modifications: PEG4-DBCO linker, 18F-FPPEGA label; Synthetic 18F-radiolabeled PD-L1 Adnectin, A02
radiotracer uptake in PD-L1(+) L2987 xenografts relative to PD-L1(−) HT-29 xenografts, blocked [2]: 1.04 ×
tissue with higher uptake than the PD-L1(+) tumor ([3]; ex vivo gamma counter): kidney
uptake in PD-L1(+) L2987 xenografts compared to PD-L1(−) HT-29 xenografts, ex vivo ([3]; necropsy immediately after imaging, gamma counter): clear differential uptake

B2: ^18F-radiolabeled E01-4PEG-DBCO: E01 anti-PD-L1 Adnectin (SEQ ID NO: 1) linked via maleimide-PEG4-DBCO to [18F]-FPPEGA by click reaction (conjugate)
chain: GVSDVPRDLEVVAATPTSLLISWRAQLSPSFYYRITYGETGGNSPVQEFTVPNDVMTATISGLKPGVDYTITVYAVTTHGVYFYSPISINYRTPC
modifications: maleimide-PEG4-DBCO, 18F-FPPEGA label; Synthetic FBS protein, E01 Adnectin containing the C-terminal amino acids PC
notable radiotracer accumulation (tissues) ([4]; PET): mainly in the kidneys, spleen, and bladder
background levels / background accumulation in PET images ([4]; approx. 1.5 mCi (approx. 0.015 mg/kg) via VAP): very low
cell associated radioactivity in PD-L1-positive L2987 cells relative to PD-L1-negative HT-29 cells ([5]; 300 nCi/200 μL tracer): 44.6 ×

B3: E01 Adnectin: FBS protein, anti-PD-L1 Adnectin, SEQ ID NO: 1, cold (unlabeled) (protein)
chain: GVSDVPRDLEVVAATPTSLLISWRAQLSPSFYYRITYGETGGNSPVQEFTVPNDVMTATISGLKPGVDYTITVYAVTTHGVYFYSPISINYRTPC
modifications: Synthetic FBS protein, E01 Adnectin containing the C-terminal amino acids PC
reduction in cell-associated ^18F-radiolabeled E01-4PEG-DBCO on co-incubation with cold adnectin ([5]; 450 nM cold (unlabeled) adnectin): 99.6%
